From the nanobody polyreactivity screen of Harvey et al. (2022)

Assay: yeast display, Sf9 membrane polyspecificity reagent, FACS + sequencing; frameworks hold sequencing errors
How it was run: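 After 36–48 hours of galactose induction, yeast (Saccharomyces cerevisiae BJ5465) displaying a synthetic nanobody library were stained at 4 °C for 1 hour with 10% biotinylated, detergent-solubilized Sf9 membrane reagent. Streptavidin microbeads enriched the stained cells before FACS sorting into low and high (top ~1%) gates on anti-HA and streptavidin fluorescence. Each clone's polyreactivity label reflects its gate of origin.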

Row | Sequence | polyreactivity (PSR sort gate)
1 | QVQLVESGGGLVQAGGSLRISCAASGSTFYFNAMGWYRQAPGKERELVAGISSGGSTYYADSVKWRFTISRDNAKTTVYLQMNSLKPEDTAVYYCAATWLVERPFSYTEYGYWGQGTQVTVSS | low polyreactivity
2 | QVQLVESGGGLVQAGGSLRLSCAASGSIFASYAMGWYRQEPGKERELVAAISRRAVRTYYADSVKGRFTISRDNAQNTVYLQMNSLKPEDTAVFYCAKDYRDWRKYDFWGQGTQVTVSS | high polyreactivity
3 | QVQLVESAGGLVQAGGSLRLSCAASGITIVRYARGWSRQAPGKERELVAAINRSGGSTYDADSVKGRFTISRDNAKNTVYLQMNSLKPEDTAVYYCAARLYGKYDPPGYYYWGQGTQVTVSS | high polyreactivity
4 | QVQLVESGGGLVQAGGSLRLSCAASGYTFFFYAMGWYRQAPGKEREFVAAITWRGDSTYYADSVKGRFTISRDNAKNTVYLQMNSLKPEDTAVYYCAADPGFTWSRRMDYWGQGTQVTVSS | low polyreactivity
5 | QLQLVESGGGLVQAGGSLRLSCAASGRIFSPYAMGWYSQAPGTASELVARISWRGSRTYFADSVKRRFTISRDNAKNTVYLQMNSLKPEDTAVYYCNAVVYRKPLRRDYWGQGTQVTVSS | high polyreactivity
6 | QVQLVESGGGLVQAGGSLRLSCAASGLTFAYYVMGWYRQAPGKERELVATITRGGDTNYADSVKGRFTISRDNAKNTVYLQINSLKPEDTAVYYCAAGSYRDRTFAYNYWGQGTQVTVSA | high polyreactivity
7 | QVQLVESGGGLVQAGGSLRLSCAASGSTFWLYVMGWYRQAPGKERELVAAISSGGITKYADSVKGRFTISRDNAKNTVYLQMNSLKPEDTAVYYCAVGVLGYRRVTGYYWGQGTQVTVTS | high polyreactivity
8 | QVQLVESGGGLVQAGVSLRLSFAASGSTFRGYAMGWYRQAPGKEREVVAAISSRGARTHYAHSVKGRFTISRDNAKNTVYLQMYSLKPVDTAVNYCNKRQVFVSTGEYEFDYCGQGTQVTVSS | low polyreactivity
9 | QVQLVESGGGLVQAGGSLRLSCAASGMIFADYVMGWYRQAPGKERELVATINQGGGSTYYADSVKGRFTISRDNAKNTVYLQMNSLKPEDTAVYYCAATWALLYAIFESYDYWGQGTQVTVSS | low polyreactivity
10 | QVQLVESGGGLVQAGGSLSLSCAASGSTFWYYAMGLYRQAPGKERELVAAITRGGNTYYADSVKGRFTISRDNAKNTVYLQMNSLKPEDTAVYYCAAGFYLLGKYDYWGQGTQVTVSS | high polyreactivity
11 | QVQLVESGGGLVQAGCSLRLSCAASGRIFPRNVMGWYRQAPGKERELVAAISSRGTRTYYADSVKGRFTISRDNAKNTVYLQMNSLKPEDTAVYYCAADGPYEGYDYWGLGTQVTVSS | high polyreactivity
12 | QVQLVESGAGLVQAGGSLRLSCAASGSIFDHYAMGWYRQAPGKERELVAAISSSGGSTYYADSVKGRFTISRDNAKNTVYLQMNSLKPEDTAVYSCAARAGYTRYGYWGQGTQVTVSS | high polyreactivity
13 | QDQLVESAGGLVQAGGSLRLSCAASGRIYVSNVMRWSRQAPGKERELVAAIDKSGGSTYYADSVKGRFTISRDNAKNTVYLQMNSLKPEDTAVYYCAATSYRQPYRYYYWGQGTQVTVSS | high polyreactivity
14 | QVQLVESGGGLVQAGGSLRLSCAASVITFGANTMGWDIQAPGKERELVATLTSSGGSTYYADSVKGRFTISRDNAKNTVYLQMNSLKPEDTAVYYCAASDLRDRGNYVYLPSEYWGLGTQVTVSS | low polyreactivity
15 | QVQLVVSGGGLVQAGGSLRLSCAASGSTVVTYAMGWYRQAPGKERELVAAISRSGTSTYYADSVKGRYTISRDNAKYTVYLHLPSRKPEDTAVYDCAAYGPRVNGEIGREYYYWGQGTQVTVSS | low polyreactivity
16 | QVQLVESGGGLVQAGGSLRLSCAASGSTFTQKAMGWYRQAPGKERELVAAISSSGTRTYYADSVKGRFTISRDNAKNTVYLQMNSLKPEDTAVYYCNARYRIGSWYEFGSWGQGTQVTVSS | high polyreactivity
17 | QVQLVESGGGLVQAGGSLRLSCAASGLIFAINAMGWYRQAPGKEREMVAAIRWSGDSTYADSVKGRFTISRDNAKNTVYLQMNSLKREDTAVYYCAADDLLDYDYWGQGTQVTVSS | low polyreactivity
18 | QVQLVESGGGLVQAGGSLRLSCAASGGIFPYYAMGWYRQAPGKERELVADISSGGSTYYADSVKGRFTISRDNAKNTVYFQMNSLKPEDTAVYYCAADAGQYFTYSGDDNHDYWGQGTQVTVSS | low polyreactivity
19 | QVQLVESGGGLVQAGGSLRLSCAASGSTFTTNAMGWYIQAPGKERELVASITWSGGGTNYADSVKGRFTISRDNAKNTVYLQMNSLKPEDTAVYYCAADYDDSHLRSDYWGQGTQVTVSS | low polyreactivity
20 | QVQLEESGGGLVQAGGSLRLSCAASGAIFDGYGMGGYSQAPGQERELVAAIRWGDGITYYADSVKGRFTISRDNAKTTVYLQMNRLKPDDTAVYYCAAVQHGHEPRVQASYDYWGQGTQVTVSS | low polyreactivity
21 | QVQLVESGGGLVQAGGSLRLSCAASGFTLTGNAMGWYRQAPGKERELVAAISRNGGSTFYADSVKGRFTISRDNAKNTVYLQMNSLKPEDTAVYYCNASRFRHSAYKYDSWGQGTQVTVSS | high polyreactivity
22 | QVQLVESGGGLVQSGGSLRLSCAASGRTFSYYAMGWYRQAPGKERELVAAISSGGSTNYADSVKGRFTISRDNAKNTVYLQMNSLKPEDTEVYYCATSSIWGSGRVRWVTYYYWGQGTQVTVSS | low polyreactivity

Row | Sequence | polyreactivity (PSR sort gate)
23 | QVQLVESGGGLVQAGGSLRLSCAASGFIFFKYVMGWYRPAPGKERELVAAISTTGGRTYYADSVKGRFTISRDNAKNTVYLQMNSLKPEDTAVYYCAADYPVWNHGFDYWGQGTQVTVSS | high polyreactivity
24 | QVQLVESGGGLVQAGGSLRLICAASGSISVVNMGWYRQSPGKERELVASITSSGSTTYADSVKGRFTISRDNAKNTVYLQMNSVKPEDTAVYYCASDVGTDYTYQHPAGAAYDYWGQGTQVTVSS | low polyreactivity
25 | QVQLVESGAGLVQAGGSLRLSCAASGITFYTYAMGWYRQAPGKERELVAAITSRTGSTYYADSVKGRFTISRDNAKNTVYLQMNSLKPEDTAVYYCAADRTRGRDGSDYWGQGTQVTVSS | low polyreactivity
26 | QVLLVESGGGLVQAGGSLRLSCAASGRTFSINAMGWDRQAPGKERELVAAITKRRSTYYADSVKGRFTISRDNAKNSVYLQMNSLKPEDTAVYYCNARYRGRVYDRFGYWGQGTQVTVSS | high polyreactivity
27 | QVQLVESGGGLVQAGGSLRLSCAASGRIFVLYAMGWYRQAPGKERELVAAINWSGGSTFYADSVKGRFTISRDNAKNTVYLQMNSLKPEDTAVYYCAARRGYNDGYWGQGTQVTVSS | high polyreactivity
28 | QVQLVESGGGLVQAGGSLRLSCAGSGLIFDDYPMGWYRQAPGKERELVAAISWSDGTTYYADSVKGRFTISRDNAKNTVYLQMNSLKPEDTAVYYCAAEEVSGWEYDYWGQGTQVTVSS | high polyreactivity
29 | QVQLVESGGGLVQAGGSLRLSCAASGSILESNVMGWYRQAPGKERELVASISSSGDSTYADSVKGRFTISRDNAKNTVYLQMNSLKPEDTAVYYCAADAPGADFDYWGQGTQVTVSS | low polyreactivity
30 | QVQLVESGGGLVQAGGSLRLSCAASGFTLGFNAMGWYRQAPGKERELVAAITIGGTTYYADSVKGRFTISRDNAKNTVYLQMNSLKPEDTAVYYCAAARFLWFYVYTTRVQRYGYWGQGTQVTVSS | low polyreactivity
31 | QVQLVESGGGLDQAGGSLRLSCAASGFTLDYYTMGRYRQAPGKERELVAAISWIGTSTYYADSVKGRFTISRDNAKNTVYLQMNSLKPEDTAVYYCAAVGASVDDYYWGQGTQVTVSS | high polyreactivity
32 | QVQLVESGGGLVQAGGSLRLSCAASGSIFYYYAMGWDRQENGKESELVAAIDWDGGTTYYADSVMGLFTISRDNAKNTVYLQMNSLKPEDTAVFYCAGEVLYGPGGGYEYWGQGTQVTVSS | high polyreactivity
33 | QVQLVESGGGIVQAGGSLRLSCAASGSIFRYNVMGLYRQAPGKERELVAGITRIGGSTYYADSVKGRFTISRDNAKNTVYLQMNSLKQEDTAVYYCGTARFSYPGPFGWLDEYYYWGQGTQVTVSS | low polyreactivity
34 | QVQLVESGGGLVQAGGSLRLSCAASGFTFRYYAMGWYRQAPGKERELVASITSSGSTNYADSVKGRFTISRDNAKNTVYLQMNSLKPEDTAVYYCAKGWGSDPFRKYGDYWGQGTQVTVSS | high polyreactivity
35 | QVQLVESGGGLVQAGGSLRLSCAASGITFWLYAMGWYRQAPGKERELVAGIDNGGSTTYADSVKGRFTISRDNAKNTVYLQMNILKPEDTAVYYCAATFEWDPVYPYNGFIYDYWGQGTQVTVSS | high polyreactivity
36 | QVQLVESGGGLVHAGGSLRLSCAASGSTFHRYAMGWYRQAPGKERELVARINGSGGSTYYADSVKGRFTISRDNAKNSVYLQMNSLIPEDTAVYYCAAELDVYVSIGSRFHFDYWGQGTQVTVSS | low polyreactivity
37 | QVQLVESGGGLVQAGGSLRLSCAASGSTLRAYAMGWYRQAPGKERELVATITRGARTNYADSVKGRFTISRDNAKNTVYLQMNSLKPEDTAVYYCAARSYGSQLSRQVYYWGQGTQVTVSS | high polyreactivity
38 | QVQIVESGGGLVQAGGSLRLSCAASGRTFAYYAMGWYRQAPGKERELVATISGSGGTTRYADSVKGRFTISRDNAKNTVYLQMNSLKPEDTAVYYCAARYASGRRGEYWGQGTQVTVSS | high polyreactivity
39 | QVQLVESGGGLVQAGGSLRLSCASSGSIFAYNTMGRYRQAPGKERELVAAITGRAGSTYYADSVKGRFTISRDNAKNTFYLQMNSLKPEDTAVYYCAAEYRFAFPLWLDYWGQGTQVTVSS | high polyreactivity
40 | QVQLVESGGGLVQAGCRLRLSCAASGSIIYRKAMGWYRQAPGKERQLVAAISARGGRTNYAVSVKGRFTISRDNAKNTVYLQLYSLNPEDTAVYYCNTADSWYHRSQAYDYWGQGTQVTVSS | high polyreactivity
41 | QVQLVETGGGLVQAGGSLRLSCAASGRIFYYYAMGWYRQAPGKERELVAAITRGGGTYYADSVKGRFTISRDNAKNTVYLQMYSLKPEDTAVYYCAKRGPPESHHPYRYRFDYWGQGPQVTVSS | low polyreactivity
42 | QVQLVESGGGIVQAGGSLRLSCAASGIIFHFNDMGWYRQAPGKERELVAAITSGGSTNYADSVKGRFTISRDNAKNTVDLQMNSLKPEDTAVYYCAARRGLRLFAYRHGYWGQGTQVTVSS | low polyreactivity
43 | QVKLVESGGGLVQAGGSLRLSCAASGSIYWYAMGWYRQAPGKERELVAAISRRGGSTYYADSVKGRFTISRDNAKNTVYLQMNSLKPEDTAVYYCAVGIYGEYDYWGQGTQVTVSS | high polyreactivity
